Reference: the supplement of paper PMC12636428

What follows are sequences tested on Saccharomyces cerevisiae (assay: transcriptional activation domain activity (GFP:mCherry ratio, weighted mean of sorted bins, harmonized to initial dataset scale) (arbitrary fluorescence ratio units); higher = stronger transcriptional activation). Details: beta-estradiol 1 µM; induction time 4 h.
Summary of the method: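 For this assay, yeast diploids with a GFP reporter carried barcoded protein tiles at URA3, each fused to an estradiol-inducible synthetic transcription factor. Induction was a 1:5 dilution into SC with 1 uM beta-estradiol for 4 hours at 30 °C, followed by sorting into 8 bins by GFP:mCherry ratio and barcode sequencing. Tiles under 50 reads were dropped, and activation activity was calculated as the read-weighted mean of bin median fluorescence, averaged across barcodes and linearly mapped onto the initial dataset scale.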

Point of comparison: “MDAYFFFVFLSFLFFYIFFLLFSILLLFSFYFLCSGVHNMCFLVGVWLWSRGG”, “transcriptional activation domain activity” value 35800. Against it:
- EVSIDGVQTVTYCGRDALPEHDKVTEVGWVLDRGILKLGVLYLWLNCRHMCVT — higher, 65400
- SDYGLHLRHVLLLSPTIFPIIFAALMGRCFRSIGLYRAERGISLIRLEQLIGC — higher, 55900
- VYIFLTFFIATWWPLCLVNLFGWMLLYLFRGVFPEAIMLIFNVLSRVVTIHRI — higher, 42000
- HESEESSDKKGKKKAKIEEEKEEEKEAEEEKAEEVEEAEEAEEVGEVGEEAAV — higher, 45400
- CDTGILLCLVCYLSSKVLLYFFLVEKVHVIRGNNDSRWKDKLFVFNCFGMMLP — higher, 38100
- KADEDAQTGEKRKAEEPAADTNGEKSKDEEPASKKAKTDEEEKTAGKAKKPGR — lower, 24000
- FLQNSSDSVDIRLALLLTPLENTKGVSHVDQLNKPTHTVVVGIVHLCNPKSRA — higher, 51600
- WLAHSKKKTCDVCKHPYSFTKVYATDMPSRLPPVLLLRRVAQQSFFAMLFAVR — higher, 37900
- ESNVAGTAGSKPRKPRAKTQKKMRPSENSQAEKSDRSATRKSREPTGTRRGRK — lower, 24800
- KLWAKRRAIYSNVMGFLGGVAWAMLTARVCQLYPNACAASIVNRFFRIMYQWN — higher, 49800
- AEEEVEEEVKEEEEEEAKEEEDANESEPEPAPEPAKKGRGRKAAKAPTPVEDE — higher, 39700
- PMGGDPLLDQAFYGADDFFFPPEGCDNNMLYPQTATSWNVLPPQAMQPAPTYV — higher, 63900
- KLLRWYIYPCAYRLGTVCCLFLSEIYNERHRKLSYAVMEPDTWPIMFTDKLAR — higher, 74900
- VCVLHLIVIALSLTDLILPSLIWGLTAIFLGVYAIVQKLSIALIVQPQLFGTL — higher, 65700
- ILLVALPLFSFGFESFLPFGKDSGILYYFWLYSTRVFCPCMGFLWAIFALLPF — higher, 59700
- SSRRTKKSRRRRRGSSSSSSEAPSRKQRKAAASSSDEEQDRRARRKGKGKGRV — lower, 30800
- SDEEGEMADRLADDDLDVSVLKTAKELAETAALYRIRNRRPTAHLVLPRVVEG — higher, 40200
- LMLCAGHGILIALVEQSGIDIKPILVFCLITYTLCQIGMCYSCYLYDFILLFF — higher, 50100
- VIHTTAKPYKLHFSNTLLVSTVGLLALLVTTMVFVPWNNYYLPRKWGVFLICF — higher, 42700
- MRGVCSFCSFCSFSFLFLFLFLFLFFSFFSFFSFCFFLFFPSFLSVSLSFLLS — higher, 71100
- PELGRIVRWKWFEWTAKALFIQLYSWSLQAFLFSVGWFNRFLVRKDIVLQIIM — higher, 51900
- QPPPPPGRKRKKAENGEPSTPAEPRRLRRSHEACARCRSKKIKVSTQASAVIL — higher, 53600
- KGRGGGKGRGGGKERGGGKGRGGEGEGEGEGEREGGGRGKERGREGEREGERG — lower, 21800
- CKRCSTLTCVGCGSRPLEKKLATEINVQGTKLTWCCSRGRLFVIWAILCGFDQ — higher, 43900
- TKQGHELLHQLRHLIIFREGMPCSDITLKLDIHVSKLVFVFLSAFEHGLCSKD — higher, 58200
- AINFWFFLTVYYGFYNLVGLLWITKIFNMYSLNWWPPQLGFPPTFTFFSCFPL — higher, 51500
- ILHELTIVVACHRWNHGLFFFFQMMQIPIIMYSDKIPWFRDQHALRNWCFWLA — higher, 58000
- RLGQCVKRYFDSKQVTHLVNAGKYGTGVVSYLFYFMWSYREESRGANFALWCF — higher, 79300
- EASPQPSPQPESQPAPEASPQPEPQPSSKPSPQPESQPVPEASPQPEPQPSPQ — lower, 18200
- RGKQPYRWTIWIYLGTRYSCLLMFITFFILNHAGHALCKPLILMNYVFNIVSW — higher, 41700
- MMHSLHPLSISILSLDFNLSYLLFVLPCHRIICSFFRLLAVLFHFFLFIGFYL — higher, 60300
- MLRCLLSFLLYIYQFKYCNAQVSINVPIDGRQFKFIESFQFLNLPFNVITSTV — higher, 67900
- LAEVILLPDLCGFCCFSMRFVVLLDLIGTLTLPVTCLYLIYLIYVMASGNGPF — higher, 50300
- GGKEEGGEETGERATKQQKTTPQESNKGSQGGNNNQRQGGGRNRHGRNRNGGG — lower, 30400
- EETPVTEAPKAVEESKPVEEVKSEQKEGAAETAKDEPAQETATERSTESTPAS — lower, 34900
- DVYNEGHICNHSDDEGRYAYKYQPTMILYAIRALLRSLSVLIGAEEELGNAVA — higher, 36400
- ICGMWLRGSFTFLSTVKDPHVLLRTMIKRDPELGFLWVGAFITGCHDRALREG — higher, 71200
- FPIRIYSYVKLKWHLFLFDYCYFASMLNLIYLWILPNSTLLFTICYCAAHGPL — higher, 61800
- EIKGDLTMTNLVTNFGFSIRWTHNLFEHLSIDWVGRVITIYEDKICLWNHLRF — higher, 43500
- MPPKRGRPKKASTPPPAPVEDEAPAPVAAPRGRGRPRKVQPSGDPEQTTAPTP — lower, 28500
- LEGPPLEKTGSDILQQVCNVLPSFEQSSKIITDFFNTELETNEVSEVLDKTKI — higher, 49900
